Assay [1] concerns the target T1, Recombinant Human CD14/His Protein (B294801) (human, UniProt P08571 20-352, limits assumed).
T1 construct: Bought His-tagged recombinant human CD14; also called recombinant human CD14 antigen; CD14 antigen; not shown: histidine tag
T1 sequence (looked up): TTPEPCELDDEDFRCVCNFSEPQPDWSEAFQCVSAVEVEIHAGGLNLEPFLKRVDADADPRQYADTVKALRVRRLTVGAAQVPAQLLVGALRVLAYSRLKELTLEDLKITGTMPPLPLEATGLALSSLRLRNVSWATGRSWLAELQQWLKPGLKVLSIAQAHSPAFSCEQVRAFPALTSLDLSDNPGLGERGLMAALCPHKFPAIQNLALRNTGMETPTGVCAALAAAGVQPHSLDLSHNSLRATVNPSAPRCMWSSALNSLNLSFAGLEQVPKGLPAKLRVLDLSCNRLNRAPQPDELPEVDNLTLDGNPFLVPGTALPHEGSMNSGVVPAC
In words: SPR (Biacore 8K), antibody captured (1 ug/mL) on Protein A chip, CD14-His analyte 0.1953125-25 nM, 1:1 binding. As to the method: The Biacore 8K platform was used to test the kinetic and affinity properties of the antibody, operating according to system instructions and indications.
Results of Affinity Detection. The affinity of the six antibodies was measured at saturation concentration. […] Change factor is described above.
For orientation: Surface plasmon resonance follows binding to a sensor surface in real time, without labels.

Assay [2] addresses T1, Recombinant Human CD14/His Protein …. In words: SPR (Biacore 8K), antibody captured on Protein A chip, CD14-His analyte 0.78125-25 nM, 1:1 binding. As for the experimental part: The Biacore 8K platform was used to test the kinetic and affinity properties of the antibody. The operation was carried out according to the system instructions and indications.
15 humanized antibodies (numbered D6DD3D002-D6DD3D0016) and 1 mouse antibody (number D6DD3D001) were tested. […] The capture concentration was 1 μg/mL. In Table 8-3, the change factor is the ratio of the equilibrium dissociation constant KD of the humanized to mouse antibody, and reflects the change in affinity after humanization.

B1: Antibody No. MPDDAD005 (HU1127-hVH3/hVL3-5) (antibody, V domains shown)
VH: QLQLQESGPGLVKPSETLSLTCTVSGGSISSDSAWNWIRQPPGKGLEWIGYISYSGSTSYNPSLKSRVTISRDTSKNQFSLKLSSVTAADTAVYYCVRGLRFAYWGQGTLVTVSS
VL: DIQLTQSPSSLSASVGDRVTITCRASESVDSYVQSFLHWYQQKPGKAPKLLIYRASNLQSGVPSRFSGSGSRTDFTLTISSLQPEDVATYYCQQSNEDPYTFGQGTKLEIK
notes: D6DD3D014 with the light chain PTM site NS (VL amino acids 34, 35) changed to QS; Tested as a recombinant antibody with hFc tag, 144 kDa
With B1, in assay [1], the “Change Factor (KD relative to mouse antibody D6DD3D001)” value was found to be 5.65, the Kd is 4.88 nM, the koff is 0.00544 s⁻¹ and the association rate constant (kon) amounted to 1.11e+06 M⁻¹ s⁻¹.

B2: Antibody No. D6DD3D001 (HU1127-mVH/mVL) (antibody, human IgG1, kappa, V domains shown)
VH: DVQLQQSGPGLVKPSQSLSLTCTVTGYSITSDSAWNWIRQFPGNRLEWMGYISYSGSTSYNPSLKSRISITRDTSKNQFFLQLNSVTTEDTATYYCVRGLRFAYWGQGTLVTVSS
VL: DIVLTQSPASLAVSLGQRATISCRASESVDSYVNSFLHWYQQKPGQPPKLLIYRASNLQSGIPARFSGSGSRTDFTLTINPVEADDVATYYCQQSNEDPYTFGGGTKLEIKR
notes: Mouse variable domains of Atibuclimab on human IgG1 constant regions (hFc, 146 kDa); also called Original IgG1 antibody; mouse antibody
As to B2, in assay [2], the “Change Factor (KD relative to mouse antibody D6DD3D001)” value stood at 1, the dissociation constant Kd was determined as 0.485 nM, the koff was 0.000858 s⁻¹ and the kon came out at 1.77e+06 M⁻¹ s⁻¹. In assay [1], the “Change Factor (KD relative to mouse antibody D6DD3D001)” value was determined as 1, the dissociation constant (Kd) came to 0.864 nM, the off-rate constant (koff) amounted to 0.00108 s⁻¹ and the kon was 1.25e+06 M⁻¹ s⁻¹.

Broadly, the Kd is the free concentration of one partner at which half of the binding sites on the other are occupied at equilibrium, for simple one-to-one binding. The term koff denotes the rate constant with which the complex falls apart. By kon is commonly meant a measure of how fast the partners come together.

The values above are taken from patent publication US20250011456A1 (VILLANELLE LIFE SCIENCE, published 2025).
